Laboratory results taken from publication PMC10397247.
Like-named read-outs stand apart in the source and are kept apart here.

Legend:
P6SHb = target: T1, P6SHb; experiment: two-hybrid library CCNG1;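 further: natural log of median RNA to DNA barcode read ratio; higher means stronger binding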
T1 chain: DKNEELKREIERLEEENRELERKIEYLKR

P7SHb = target: T2, P7SHb; experiment: two-hybrid library CCNG1;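 further: natural log of median RNA to DNA barcode read ratio; higher means stronger binding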
T2 chain: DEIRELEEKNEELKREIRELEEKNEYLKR

P8SHb = target: T3, P8SHb; experiment: two-hybrid library CCNG1;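 further: natural log of median RNA to DNA barcode read ratio; higher means stronger binding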
T3 chain: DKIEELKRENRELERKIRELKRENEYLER

P9SHb = target: T4, P9SHb; experiment: two-hybrid library CCNG1;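 further: natural log of median RNA to DNA barcode read ratio; higher means stronger binding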
T4 chain: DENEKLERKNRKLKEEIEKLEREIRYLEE

4H496-bN = target: T5, 4H496-bN; experiment: two-hybrid library CCNG1
T5 chain: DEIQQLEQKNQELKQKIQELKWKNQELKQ

4H797-AA = target: T6, 4H797-AA; experiment: two-hybrid library CCmax; details: mean of both orientations
T6 chain: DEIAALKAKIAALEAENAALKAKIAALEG

4H4001-AA = target: T7, 4H4001-AA; experiment: two-hybrid library CCmax; details: mean of both orientations
T7 chain: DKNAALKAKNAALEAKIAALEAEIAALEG

4H3855-AA = target: T8, 4H3855-AA; experiment: two-hybrid library CCmax; details: mean of both orientations
T8 chain: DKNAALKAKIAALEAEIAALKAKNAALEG

4H906-AA = target: T9, 4H906-AA; experiment: two-hybrid library CCmax; details: mean of both orientations
T9 chain: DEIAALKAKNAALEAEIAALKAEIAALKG

4H3655-AA = target: T10, 4H3655-AA; experiment: two-hybrid library CCmax; details: mean of both orientations
T10 chain: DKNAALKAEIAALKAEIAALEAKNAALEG

4H717-AA = target: T11, 4H717-AA; experiment: two-hybrid library CCmax; details: mean of both orientations
T11 chain: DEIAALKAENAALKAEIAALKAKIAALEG

4H3921-AA = target: T12, 4H3921-AA; experiment: two-hybrid library CCmax; details: mean of both orientations
T12 chain: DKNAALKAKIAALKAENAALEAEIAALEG

4H48-AA = target: T13, 4H48-AA; experiment: two-hybrid library CCmax; details: mean of both orientations
T13 chain: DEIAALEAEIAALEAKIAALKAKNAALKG

4H605-AA = target: T14, 4H605-AA; experiment: two-hybrid library CCmax; details: mean of both orientations
T14 chain: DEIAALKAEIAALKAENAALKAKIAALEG

4H918-AA = target: T15, 4H918-AA; experiment: two-hybrid library CCmax
T15 chain: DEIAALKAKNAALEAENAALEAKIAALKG

4H967-AA = target: T16, 4H967-AA; experiment: two-hybrid library CCmax; details: mean of both orientations
T16 chain: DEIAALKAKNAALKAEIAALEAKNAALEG

4H429-AA = target: T17, 4H429-AA; experiment: two-hybrid library CCmax; details: mean of both orientations
T17 chain: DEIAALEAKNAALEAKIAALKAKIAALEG

4H3844-AA = target: T18, 4H3844-AA; experiment: two-hybrid library CCmax; details: mean of both orientations
T18 chain: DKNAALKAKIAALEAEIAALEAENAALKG

4H568-AA = target: T19, 4H568-AA; experiment: two-hybrid library CCmax; details: mean of both orientations
T19 chain: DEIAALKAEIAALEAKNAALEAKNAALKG

4H678-AA = target: T20, 4H678-AA; experiment: two-hybrid library CCmax; details: mean of both orientations
T20 chain: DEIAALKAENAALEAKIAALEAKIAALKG

4H881-AA = target: T21, 4H881-AA; experiment: two-hybrid library CCmax; details: mean of both orientations
T21 chain: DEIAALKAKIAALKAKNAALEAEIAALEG

4H454-AA = target: T22, 4H454-AA; experiment: two-hybrid library CCmax; details: mean of both orientations
T22 chain: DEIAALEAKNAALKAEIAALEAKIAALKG

4H780-AA = target: T23, 4H780-AA; experiment: two-hybrid library CCmax; details: mean of both orientations
T23 chain: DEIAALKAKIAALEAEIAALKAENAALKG

4H953-AA = target: T24, 4H953-AA; experiment: two-hybrid library CCmax; details: mean of both orientations
T24 chain: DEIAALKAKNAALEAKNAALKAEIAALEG

4H883-AA = target: T25, 4H883-AA; experiment: two-hybrid library CCmax; details: mean of both orientations
T25 chain: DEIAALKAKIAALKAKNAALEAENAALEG

4H794-AA = target: T26, 4H794-AA; experiment: two-hybrid library CCmax; details: mean of both orientations
T26 chain: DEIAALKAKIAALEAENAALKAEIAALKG

4H566-AA = target: T27, 4H566-AA; experiment: two-hybrid library CCmax; details: mean of both orientations
T27 chain: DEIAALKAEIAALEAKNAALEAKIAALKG

4H687-AA = target: T28, 4H687-AA; experiment: two-hybrid library CCmax; details: mean of both orientations
T28 chain: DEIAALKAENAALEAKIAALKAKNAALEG

4H3427-AA = target: T29, 4H3427-AA; experiment: two-hybrid library CCmax
T29 chain: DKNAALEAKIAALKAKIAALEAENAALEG

4H993-AA = target: T30, 4H993-AA; experiment: two-hybrid library CCmax; details: mean of both orientations
T30 chain: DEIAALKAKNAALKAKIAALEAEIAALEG

4H3627-AA = target: T31, 4H3627-AA; experiment: two-hybrid library CCmax; details: mean of both orientations
T31 chain: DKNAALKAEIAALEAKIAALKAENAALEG

4H3606-AA = target: T32, 4H3606-AA; experiment: two-hybrid library CCmax; details: mean of both orientations
T32 chain: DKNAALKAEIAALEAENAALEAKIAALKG

4H3782-AA = target: T33, 4H3782-AA; experiment: two-hybrid library CCmax
T33 chain: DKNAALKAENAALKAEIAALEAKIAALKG

P7 = target: T34, P7; experiment: two-hybrid library CC1; details: mean of both orientations
T34 chain: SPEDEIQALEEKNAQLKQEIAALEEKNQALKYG

P7mS = target: T35, P7mS; experiment: two-hybrid library CC1; details: mean of both orientations
T35 chain: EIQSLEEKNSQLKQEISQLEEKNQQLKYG

P8mS = target: T36, P8mS; experiment: two-hybrid library CC1; details: mean of both orientations
T36 chain: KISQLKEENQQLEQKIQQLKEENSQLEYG

P5SC1 = target: T37, P5SC1; experiment: two-hybrid library CC1
T37 chain: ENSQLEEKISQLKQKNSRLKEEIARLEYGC

P6SC2 = target: T38, P6SC2; experiment: two-hybrid library CC1; details: mean of both orientations
T38 chain: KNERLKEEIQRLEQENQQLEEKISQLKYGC

P6 = target: T39, P6; experiment: two-hybrid library CC1; details: mean of both orientations
T39 chain: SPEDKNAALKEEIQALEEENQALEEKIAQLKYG

P5SC2 = target: T40, P5SC2; experiment: two-hybrid library CC1; details: mean of both orientations
T40 chain: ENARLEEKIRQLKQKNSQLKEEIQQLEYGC

P5mS = target: T41, P5mS; experiment: two-hybrid library CC1; details: mean of both orientations
T41 chain: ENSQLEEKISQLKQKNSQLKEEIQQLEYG

P6mS = target: T42, P6mS; experiment: two-hybrid library CC1; details: mean of both orientations
T42 chain: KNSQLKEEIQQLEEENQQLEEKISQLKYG

P8 = target: T43, P8; experiment: two-hybrid library CC1; details: mean of both orientations
T43 chain: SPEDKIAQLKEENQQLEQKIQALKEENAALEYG

P6SC1 = target: T44, P6SC1; experiment: two-hybrid library CC1; details: mean of both orientations
T44 chain: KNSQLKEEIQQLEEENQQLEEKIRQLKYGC

P9 = target: T45, P9; experiment: two-hybrid library CC1; details: mean of both orientations
T45 chain: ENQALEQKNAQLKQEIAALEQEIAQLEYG

4H_BCR = target: T46, 4H_BCR; experiment: two-hybrid library CCmax; details: mean of both orientations
T46 chain: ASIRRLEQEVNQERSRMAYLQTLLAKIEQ

4H_APH = target: T47, 4H_APH; experiment: two-hybrid library CCmax; details: mean of both orientations
T47 chain: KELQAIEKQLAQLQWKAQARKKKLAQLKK

4H535-AA = target: T48, 4H535-AA; experiment: two-hybrid library CCmax; details: mean of both orientations
T48 chain: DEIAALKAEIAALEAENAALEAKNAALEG

4H58-AA = target: T49, 4H58-AA; experiment: two-hybrid library CCmax; details: mean of both orientations
T49 chain: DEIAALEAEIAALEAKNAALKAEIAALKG

4H464-AA = target: T50, 4H464-AA; experiment: two-hybrid library CCmax; details: mean of both orientations
T50 chain: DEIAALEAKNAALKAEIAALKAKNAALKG

4H465-AA = target: T51, 4H465-AA; experiment: two-hybrid library CCmax; details: mean of both orientations
T51 chain: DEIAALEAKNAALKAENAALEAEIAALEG

4H3939-AA = target: T52, 4H3939-AA; experiment: two-hybrid library CCmax; details: mean of both orientations
T52 chain: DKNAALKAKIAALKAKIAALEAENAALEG

4H3969-AA = target: T53, 4H3969-AA; experiment: two-hybrid library CCmax; details: mean of both orientations
T53 chain: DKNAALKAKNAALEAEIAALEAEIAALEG

4H_GCN4 = experiment: two-hybrid library CCmax; details: mean of both orientations
4H63-AA = target: T54, 4H63-AA; experiment: two-hybrid library CCmax; details: mean of both orientations
T54 chain: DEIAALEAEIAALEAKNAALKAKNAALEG

4H486-AA = target: T55, 4H486-AA; experiment: two-hybrid library CCmax; details: mean of both orientations
T55 chain: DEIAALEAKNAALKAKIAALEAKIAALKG

4H483-AA = target: T56, 4H483-AA; experiment: two-hybrid library CCmax; details: mean of both orientations
T56 chain: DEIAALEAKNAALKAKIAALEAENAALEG

4H446-AA = target: T57, 4H446-AA; experiment: two-hybrid library CCmax; details: mean of both orientations
T57 chain: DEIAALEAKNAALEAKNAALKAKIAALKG

GCN2_T = experiment: two-hybrid library CCmax
4H895-AA = target: T58, 4H895-AA; experiment: two-hybrid library CCmax; details: mean of both orientations
T58 chain: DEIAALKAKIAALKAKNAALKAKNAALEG

4H380-AA = target: T59, 4H380-AA; experiment: two-hybrid library CCmax; details: mean of both orientations
T59 chain: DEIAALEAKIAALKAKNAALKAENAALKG

Chain of 4H_GCN4 (chain, as listed by the source): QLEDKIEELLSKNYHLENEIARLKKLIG

## DKNEELKREIERLEEENRELERKIEYLKR [P6SHb]
P6SHb
  interaction score: 0.147
P7SHb
  interaction score: 0.946
P8SHb
  interaction score: 0.342
P9SHb
  interaction score: 0.769

## DEIQQLEQKNQELKQKIQELKWKNQELKQ [4H496-bN]
4H496-bN
  interaction score: -0.0824

## DKNAALEAKIAALKAKIAALEAENAALEG [4H3427-AA]
4H797-AA
  interaction score: -1.46
4H4001-AA
  interaction score: -1.06
4H3855-AA
  interaction score: -1.01
4H906-AA
  interaction score: -1.69
4H3655-AA
  interaction score: 0.589
4H717-AA
  interaction score: -1.29
4H3921-AA
  interaction score: -1.79
4H48-AA
  interaction score: 1.18
4H605-AA
  interaction score: -1.66
4H918-AA
  interaction score: -1.2
4H967-AA
  interaction score: -1.59
4H429-AA
  interaction score: -1.37
4H3844-AA
  interaction score: 0.482
4H568-AA
  interaction score: -0.257
4H678-AA
  interaction score: -1.47
4H881-AA
  interaction score: -1.68
4H454-AA
  interaction score: -0.567
4H780-AA
  interaction score: -1.61
4H953-AA
  interaction score: -1.66
4H883-AA
  interaction score: -1.7
4H794-AA
  interaction score: -1.26
4H566-AA
  interaction score: -1.35
4H687-AA
  interaction score: -1.62
4H3427-AA
  interaction score: -0.802
4H993-AA
  interaction score: -1.24
4H3627-AA
  interaction score: -0.773
4H3606-AA
  interaction score: -0.74
4H3782-AA; mean of both orientations
  interaction score: -0.991

## ENSQLEEKISQLKQKNSRLKEEIARLEYGC [P5SC1]
P7
  interaction score: -2.4
P7mS
  interaction score: -2.67
P8mS
  interaction score: -2.29
P5SC1
  interaction score: -2.92
P6SC2
  interaction score: 0.373
P6
  interaction score: 0.357
P5SC2
  interaction score: -2.82
P5mS
  interaction score: -2.78
P6mS
  interaction score: 0.307
P8
  interaction score: -0.893
P6SC1
  interaction score: 0.372
P9
  interaction score: -2.33

## DKNAALKAENAALKAEIAALEAKIAALKG [4H3782-AA]
4H_BCR
  interaction score: -1.19
4H797-AA
  interaction score: -1.45
4H_APH
  interaction score: -2.26
4H4001-AA
  interaction score: -0.482
4H535-AA
  interaction score: -1.44
4H58-AA
  interaction score: -1.38
4H3855-AA
  interaction score: -0.587
4H717-AA
  interaction score: 1.02
4H464-AA
  interaction score: -0.448
4H465-AA
  interaction score: -1.7
4H3939-AA
  interaction score: -0.413
4H918-AA; mean of both orientations
  interaction score: -0.968
4H3969-AA
  interaction score: -0.912
4H967-AA
  interaction score: -1.19
4H568-AA
  interaction score: -1.41
4H_GCN4
  interaction score: -2.54
4H63-AA
  interaction score: -1.44
4H486-AA
  interaction score: 1.41
4H483-AA
  interaction score: -0.902
4H446-AA
  interaction score: -1.07
GCN2_T
  interaction score: -1.87
4H953-AA
  interaction score: -1.68
4H895-AA
  interaction score: -1.54
4H883-AA
  interaction score: -1.27
4H687-AA
  interaction score: -0.545
4H380-AA
  interaction score: -1.52
4H3782-AA
  interaction score: 0.893
